# According to patent US20190142971A1, “FORMULATION AND DELIVERY OF MODIFIED NUCLEOSIDE, NUCLEOTIDE, AND NUCLEIC ACID COMPOSITIONS” (ModernaTX, Inc., priority 2013, published 2019):
# B1: EPO: modified mRNA encoding human erythropoietin, SEQ ID NO: 7, Cap1, fully modified with 5-methylcytosine and pseudouridine; LNP NPA-060-1 in Examples 17-22 (nucleic acid)
# chain: GGGAAAUAAGAGAGAAAAGAAGAGUAAGAAGAAAUAUAAGAGCCACCAUGGGAGUGCACGAGUGUCCCGCGUGGUUGUGGUUGCUGCUGUCGCUCUUGAGCCUCCCACUGGGACUGCCUGUGCUGGGGGCACCACCCAGAUUGAUCUGCGACUCACGGGUACUUGAGAGGUACCUUCUUGAAGCCAAAGAAGCCGAAAACAUCACAACCGGAUGCGCCGAGCACUGCUCCCUCAAUGAGAACAUUACUGUACCGGAUACAAAGGUCAAUUUCUAUGCAUGGAAGAGAAUGGAAGUAGGACAGCAGGCCGUCGAAGUGUGGCAGGGGCUCGCGCUUUUGUCGGAGGCGGUGUUGCGGGGUCAGGCCCUCCUCGUCAACUCAUCACAGCCGUGGGAGCCCCUCCAACUUCAUGUCGAUAAAGCGGUGUCGGGGCUCCGCAGCUUGACGACGUUGCUUCGGGCUCUGGGCGCACAAAAGGAGGCUAUUUCGCCGCCUGACGCGGCCUCCGCGGCACCCCUCCGAACGAUCACCGCGGACACGUUUAGGAAGCUUUUUAGAGUGUACAGCAAUUUCCUCCGCGGAAAGCUGAAAUUGUAUACUGGUGAAGCGUGUAGGACAGGGGAUCGCUGAUAAGCUGCCUUCUGCGGGGCUUGCCUUCUGGCCAUGCCCUUCUUCUCUCCCUUGCACCUGUACCUCUUGGUCUUUGAAUAAAGCCUGAGUAGGAAG
# modifications: Cap1, 5-methylcytosine, pseudouridine
# Columns and labels:
# Format in all cases: in vivo
# mice [1] = experiment: Example 65: G-CSF/EPO mRNA in saline in mice, serum protein at 13 hours (Table 97); conditions: EPO group; 100 ug, 100 μl/mouse, F. buffer, 13 hours after injection
# Description: The mice were bled at 13 hours after the injection to determine the concentration of the human polypeptide in serum in pg/mL. (G-CSF groups measured human G-CSF in mouse serum and EPO groups measured human EPO in mouse serum).
# Sprague-Dawley rats = experiment: Example 35: duration after IM EPO mRNA in rats, serum EPO (Table 61); conditions: rats IM 100 μg
# Description: The rats were bled 2, 6, 12, 24, 48 and 72 hours after the intramuscular injection to determine the concentration of human EPO in serum at a given time.
# mice [2] = experiment: Example 42A: G-CSF/EPO mRNA in buffer IM in mice, serum protein at 13 hours (Table 67); conditions: EPO group: human EPO in mouse serum, IM 100 ug
# Description: The mice were bled at 13 hours after the injection to determine the concentration of the human polypeptide in serum in pg/mL (G-CSF groups measured human G-CSF in mouse serum and EPO groups measured human EPO in mouse serum).
# [3] = system: non-human primates (cynomolgus monkey); experiment: Example 22: NHP cytokine interferon-alpha (Table 47)
# Description: LNP formulations, shown in Table 33 (above), were administered to non-human primates (NHP) (cynomolgus monkey) (n=2) as intravenous injection (IV). The NHP were administered a single modified mRNA IV dose of 0.5 mg/kg, 0.05 mg/kg or 0.005 mg/kg of G-CSF or EPO in a dose volume of 0.5 mL/kg. The NHPs were bled before dosing with the modified mRNA LNP formulations to determine protein expression in the serum and a baseline complete blood count. After administration with the G-CSF modified mRNA formulation the NHP were bled at 8, 24, 48 and 72 hours to determined protein expression. After administration with the EPO modified mRNA formulation the NHP were bled at 8, 24, 48, 72 hours and 7 days to determined protein expression.
# mice [4] = experiment: Example 19A: LNP IV in mice, serum EPO/G-CSF ELISA (Table 36)
# Description: (§1) Formulations, listed in Table 33, were characterized by particle size, zeta potential, and encapsulation.
# LNP formulations, shown in Table 33 (above), were administered to mice (n=4) intravenously (IV) at a single modified mRNA dose 0.05 mg/kg or 0.005 mg/kg. There was also 3 control groups of mice (n=4) that were untreated. The mice were bled at 2 hours, 8 hours, 24 hours, 48 hours and 72 hours after they were administered with G-CSF or EPO modified mRNA formulations to determine the protein expression. Protein expression of G-CSF and EPO were determined using ELISA.
# mice [5] = experiment: Example 18: time course LNP IV in mice, serum EPO/G-CSF ELISA (Table 35); conditions: for protein expression detectable out to: mice IV; for EPO / G-CSF Serum Concentration: mice, LNP IV
# Description: as §1
# LNP formulations, shown in Table 33 (above), were administered to mice (n=5) intravenously (IV) at a single modified mRNA dose of 0.5, 0.05 or 0.005 mg/kg. The mice were bled at 8 hours, 24 hours, 72 hours and 6 days after they were administered with G-CSF or EPO modified mRNA formulations to determine protein expression using ELISA.
# C57/BL6 mice = experiment: Example 34: EPO mRNA in buffer IM or SC in mice, serum EPO (Table 60); conditions: 13 hours post injection
# Description: Mice were intramuscularly or subcutaneously injected with 50 μl of the modified human EPO mRNA (h-EPO), modified luciferase mRNA (Luc) or the formulation buffer (F.Buffer) as described in the dosing chart Table 60. 13 hours post injection blood was collected and serum was analyzed to determine the amount human EPO for each mouse or rat.
# mice [6] = experiment: Example 42B: EPO mRNA dose response IM in mice (Table 68)
# Description: The mice were bled at 13 hours after the injection to determine the concentration of the human polypeptide in serum in pg/mL.
molecule,measurement,setting,value
B1,"Average Protein Product, serum (human EPO)",mice [1],72.03 pg/mL
same,"human EPO in serum, Avg.",Sprague-Dawley rats; 2 hour,59.6 pg/mL
same,"human EPO in serum, Geometric-mean",Sprague-Dawley rats; 2 hour,58.2 pg/mL
same,"human EPO in serum, Avg.",Sprague-Dawley rats; 6 hour,68.6 pg/mL
same,"human EPO in serum, Geometric-mean",Sprague-Dawley rats; 6 hour,55.8 pg/mL
same,"human EPO in serum, Avg.",Sprague-Dawley rats; 12 hour,87.4 pg/mL
same,"human EPO in serum, Geometric-mean",Sprague-Dawley rats; 12 hour,84.5 pg/mL
same,"human EPO in serum, Avg.",Sprague-Dawley rats; 24 hour,108.6 pg/mL
same,"human EPO in serum, Geometric-mean",Sprague-Dawley rats; 24 hour,95.3 pg/mL
same,"human EPO in serum, Avg.",Sprague-Dawley rats; 48 hour,77.9 pg/mL
same,"human EPO in serum, Geometric-mean",Sprague-Dawley rats; 48 hour,77.0 pg/mL
same,"human EPO in serum, Avg.",Sprague-Dawley rats; 72 hour,80.1 pg/mL
same,"human EPO in serum, Geometric-mean",Sprague-Dawley rats; 72 hour,75.8 pg/mL
same,"Average Protein Product, serum",mice [2],191.5 pg/mL
same,IFN-alpha,"[3]; 0.005 mg/kg, 4 days, Female NHP",0 pg/mL
same,IFN-alpha,"[3]; 0.005 mg/kg, 4 days, Male NHP",0 pg/mL
same,IFN-alpha,"[3]; 0.005 mg/kg, Day 1 + 8 hr, Female NHP",0 pg/mL
same,IFN-alpha,"[3]; 0.005 mg/kg, Day 1 + 8 hr, Male NHP",0 pg/mL
same,IFN-alpha,"[3]; 0.005 mg/kg, Pre-dose, Female NHP",0 pg/mL
same,IFN-alpha,"[3]; 0.005 mg/kg, Pre-dose, Male NHP",0 pg/mL
same,IFN-alpha,"[3]; 0.05 mg/kg, 4 days, Female NHP",0 pg/mL
same,IFN-alpha,"[3]; 0.05 mg/kg, 4 days, Male NHP",0 pg/mL
same,IFN-alpha,"[3]; 0.05 mg/kg, Day 1 + 8 hr, Female NHP",0 pg/mL
same,IFN-alpha,"[3]; 0.05 mg/kg, Day 1 + 8 hr, Male NHP",0 pg/mL
same,IFN-alpha,"[3]; 0.05 mg/kg, Pre-dose, Female NHP",0 pg/mL
same,IFN-alpha,"[3]; 0.05 mg/kg, Pre-dose, Male NHP",0 pg/mL
same,IFN-alpha,"[3]; 0.5 mg/kg, 4 days, Female NHP",0 pg/mL
same,IFN-alpha,"[3]; 0.5 mg/kg, 4 days, Male NHP",0 pg/mL
same,IFN-alpha,"[3]; 0.5 mg/kg, Day 1 + 8 hr, Female NHP",217.5 pg/mL
same,IFN-alpha,"[3]; 0.5 mg/kg, Day 1 + 8 hr, Male NHP",16.79 pg/mL
same,IFN-alpha,"[3]; 0.5 mg/kg, Pre-dose, Female NHP",0 pg/mL
same,IFN-alpha,"[3]; 0.5 mg/kg, Pre-dose, Male NHP",0 pg/mL
same,EPO / G-CSF Serum Concentration,"mice [4]; 0.005 mg/kg, 2 hours",OSC
same,EPO / G-CSF Serum Concentration,"mice [4]; 0.005 mg/kg, 8 hours","1,632.8 pg/ml"
same,EPO / G-CSF Serum Concentration,"mice [4]; 0.005 mg/kg, 24 hours","1,141.0 pg/ml"
same,EPO / G-CSF Serum Concentration,"mice [4]; 0.005 mg/kg, 48 hours",137.4 pg/mL
same,EPO / G-CSF Serum Concentration,"mice [4]; 0.005 mg/kg, 72 hours",0 pg/mL
same,EPO / G-CSF Serum Concentration,"mice [4]; 0.05 mg/kg, 2 hours","10,027.3 pg/ml"
same,EPO / G-CSF Serum Concentration,"mice [4]; 0.05 mg/kg, 8 hours","56,547.2 pg/ml"
same,EPO / G-CSF Serum Concentration,"mice [4]; 0.05 mg/kg, 24 hours","25,027.3 pg/ml"
same,EPO / G-CSF Serum Concentration,"mice [4]; 0.05 mg/kg, 48 hours","1,432.3 pg/ml"
same,EPO / G-CSF Serum Concentration,"mice [4]; 0.05 mg/kg, 72 hours",82.2 pg/mL
same,protein expression detectable out to,mice [5],6 days
same,protein expression detectable out to,mice [5]; 0.005 mg/kg and 0.05 mg/kg,3 days
same,EPO / G-CSF Serum Concentration,"mice [5]; 0.005 mg/kg, 8 hours","12,508.3 pg/ml"
same,EPO / G-CSF Serum Concentration,"mice [5]; 0.005 mg/kg, 24 hours","6,803.0 pg/ml"
same,EPO / G-CSF Serum Concentration,"mice [5]; 0.05 mg/kg, 8 hours","92,139.9 pg/ml"
same,EPO / G-CSF Serum Concentration,"mice [5]; 0.05 mg/kg, 24 hours","54,389.4 pg/ml"
same,EPO / G-CSF Serum Concentration,"mice [5]; 0.5 mg/kg, 8 hours","498,515.3 pg/ml"
same,EPO / G-CSF Serum Concentration,"mice [5]; 0.5 mg/kg, 24 hours","160,566.3 pg/ml"
same,EPO / G-CSF Serum Concentration,"mice [5]; 0.5 mg/kg, 72 hours","3,492.5 pg/ml"
same,EPO / G-CSF Serum Concentration,"mice [5]; 0.5 mg/kg, 6 days",21.2 pg/mL
same,Average Level in serum (human EPO),"C57/BL6 mice; mice IM, dose 1 μg",2.6 pg/mL
same,Average Level in serum (human EPO),"C57/BL6 mice; mice IM, dose 10 μg",25.9 pg/mL
same,Average Level in serum (human EPO),"C57/BL6 mice; mice IM, dose 25 μg",18.7 pg/mL
same,Average Level in serum (human EPO),"C57/BL6 mice; mice IM, dose 50 μg",63.5 pg/mL
same,Average Level in serum (human EPO),"C57/BL6 mice; mice IM, dose 100 μg",96.2 pg/mL
same,Average Level in serum (human EPO),"C57/BL6 mice; mice SC, dose 100 μg",72.0 pg/mL
same,"Average Protein Product, serum","mice [6]; Dose Vol. (μl/mouse) 1, 13 hours",2.6 pg/mL
same,"Average Protein Product, serum","mice [6]; Dose Vol. (μl/mouse) 10, 13 hours",25.9 pg/mL
same,"Average Protein Product, serum","mice [6]; Dose Vol. (μl/mouse) 25, 13 hours",18.7 pg/mL
same,"Average Protein Product, serum","mice [6]; Dose Vol. (μl/mouse) 50, 13 hours",63.5 pg/mL
same,"Average Protein Product, serum","mice [6]; Dose Vol. (μl/mouse) 100, 13 hours",96.2 pg/mL
